Measurements published in patent US20150086562A1 (BIOATLA, published 2015).
Where a chain is given by its changes, count along the chain named.

T1: CD22 protein expressed on the surface of Daudi cells (human, UniProt P20273 20-847)
T1 construct: whole, on cells; also called human CD22; cell surface CD22
T1 sequence (looked up): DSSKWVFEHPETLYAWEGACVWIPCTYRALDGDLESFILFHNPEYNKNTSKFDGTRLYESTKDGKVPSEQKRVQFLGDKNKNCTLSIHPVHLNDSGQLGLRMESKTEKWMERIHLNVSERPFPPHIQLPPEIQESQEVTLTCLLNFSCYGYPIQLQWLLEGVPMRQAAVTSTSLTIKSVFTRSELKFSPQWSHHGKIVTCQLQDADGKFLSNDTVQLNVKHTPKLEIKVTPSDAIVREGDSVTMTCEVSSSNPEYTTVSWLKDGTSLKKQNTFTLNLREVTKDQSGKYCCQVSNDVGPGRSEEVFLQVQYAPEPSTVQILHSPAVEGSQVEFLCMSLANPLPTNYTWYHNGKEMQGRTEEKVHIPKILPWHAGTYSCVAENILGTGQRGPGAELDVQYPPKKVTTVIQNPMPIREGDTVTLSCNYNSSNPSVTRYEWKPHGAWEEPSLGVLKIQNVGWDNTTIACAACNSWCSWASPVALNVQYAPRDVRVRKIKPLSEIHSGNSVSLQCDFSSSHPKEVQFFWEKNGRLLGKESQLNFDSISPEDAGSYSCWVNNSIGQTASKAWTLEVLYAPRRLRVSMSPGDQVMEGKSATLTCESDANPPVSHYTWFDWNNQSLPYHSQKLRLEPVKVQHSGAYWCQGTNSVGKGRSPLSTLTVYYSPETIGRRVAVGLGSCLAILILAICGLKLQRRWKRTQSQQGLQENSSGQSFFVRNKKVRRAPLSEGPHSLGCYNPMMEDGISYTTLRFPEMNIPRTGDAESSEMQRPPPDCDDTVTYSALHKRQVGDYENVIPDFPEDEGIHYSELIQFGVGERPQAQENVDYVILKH

B1: VM1006 (antibody, V domains shown)
VH: QVQLVQSGAEVKKPGASVKVSCKASGYVFTSYWLHWIRQSPSRGLEWLGYINPRNDYTEYNRIFKGRFVFSLDTSVSTAYLQICSLKAEDTAVYYCARRGITTFYWGQG
VL: DIQMTQSPSSLSASVGDRVTITCKSSQSVLYSAVEKNYLAWYQQKPGKAPKLLIYWASTRERGIPDRFSGSGSGTDFTLTISRLEPEDFAVYYCKQYLSSWTFGQG
notes: Humanized antibody with human constant region; also called anti-CD22 Mab clone VM1006
B2: VM1000 (antibody, V domains shown)
VH: QVQLVQSGAEVKKPGASVKVSCKASGYVFTSYWLHWIRQSPSRGLEWLGYINPRNDYTEYNRIFKGRLTISKDTSKNQVVLTMTNMDPVDTATYYCARRGITTFYWGQG
VL: EIVLTQSPATLSLSPGERATLSCKSSQSVLYSAVEKNYLAWYQQKPGKAPKLLIYWASTRERGVPSRFSGSGSGTDFTFTISSLQPEDIATYYCKQYLSSWTFGQG
notes: Humanized antibody with human constant region; also called anti-CD22 Mab clone VM1000
B3: VM1002 (antibody, V domains shown)
VH: EVQLVQSGAEVKKPGESLRISCKGSGYVFTSYWLHWVRQAPGQGLEWMGYINPRNDYTEYNRIFKGRVTITADKSTSTAYMELSSLRSEDTAVYYCARRGITTFYWGQG
VL: B2 VL with K48Q, K51R, V64I, S66D, F79L, S83R, Q85E, I89F, T91V
notes: Humanized antibody with human constant region; also called anti-CD22 Mab clone VM1002
B4: VM1004 (antibody, V domains shown)
VH: B1 VH with Q1E, S17T, V20I, A24V
VL: B2 VL with V64I, S66D, F79L, S83R, Q85E, I89F, T91V
notes: Humanized antibody with human constant region; also called anti-CD22 Mab clone VM1004
B5: VM1011 (antibody, V domains shown)
VH: QVQLQESGPGLVKPSQTLSLTCTVSGYVFTSYWLHWIRQPPGKGLEWIGYINPRNDYTEYNRIFKGRVTITADKSTSTAYMELSSLRSEDTAVYYCARRGITTFYWGQG
VL: B2 VL with K48Q, K51R, V64I, S66D, F79L, S83R, Q85E, I89F, T91V
notes: Humanized antibody with human constant region; also called anti-CD22 Mab clone VM1011
B6: VM1003 (antibody, V domains shown)
VH: B1 VH with Q1E, S17T, V20I, A24V
VL: B2 VL with K48Q, K51R, V64I, S66D, F79L, S83R, Q85E, I89F, T91V
notes: Humanized antibody with human constant region; also called anti-CD22 Mab clone VM1003
B7: VM1001 (antibody, V domains shown)
VH: B2 VH
VL: B2 VL with K48Q, K51R, V64I, S66D, F79L, S83R, Q85E, I89F, T91V
notes: Humanized antibody with human constant region; also called anti-CD22 Mab clone VM1001
B8: VM1007 (antibody, V domains shown)
VH: B3 VH with E1Q, E16A, L18V, R19K, I20V, G24A, P41R, G44R, M48I
VL: B1 VL with D1A, M4L, I64V, D66S, L79F, R83S, P86A, F89A, V91T
notes: Humanized antibody with human constant region; also called anti-CD22 Mab clone VM1007

Each binder was assayed against T2, recombinant CD22 extracellular domain (assay: The sheet does not state the method. The column 'KD (nM)' stands beside the confocal data, and the target form is taken from FIGURE 18. FIGURE 18 prints 0.30 for this clone.).
T2 construct: Kept apart from m18, which is cell-surface CD22; also called CD22 (analyte in the BIAcore runs); CD22 ECD
Procedure: BIAcore 3000, GE Healthcare was used to determine binding curves and kinetic parameters. An anti-human Fc (1.8 mg/ml) was diluted to a concentration of 50 ug/ml in NaOAc buffer (10 mM, pH 4.8) and coupled to the carboxymethylated dextran matrix of a CM-5 sensor chip using the manufacturer's amine-coupling chemistry as described in the BIAcore systems manual. Using the surface preparation wizard aiming for 10000RU, the carboxyl groups on the sensor surfaces were first activated with NHS/EDC followed by the addition of the anti-human Fc. The remaining activated groups were blocked by the injection of 1M ethanolamine. Each of the flow cells was coupled individually. Employing these conditions, the four flow cell surfaces containing 7554-9571 RU of anti-human Fc were prepared. In preliminary experiments, it was determine that three injections (15 ul at 30 ul/min) 100 mM H₃PO₄/0.05% CHAPS would efficiently remove the bound immunoglobulin and preserve the binding capacity of the immobilized anti-human Fc.
Experiments were performed on the BIAcore 3000 at 25° C. and a flow rate of 30 ul/min. […] Using the 1:1 model in BIAevaluation 4.1, both a local fit and global fit was done for both dissociation (kd, [s−1] and association (ka, [M⁻¹s⁻¹]) and the dissociation constant (KD, [M]) calculated (kd/ka).

Binder | Kd [nM]
B1 | 2.7

What follows are binders tested against T1, CD22 protein expressed on the surface … (assay: Quantitative confocal immunofluorescence of directly FITC-labelled antibody (5 ug/ml, 45 min on ice) on Daudi cells. paragraph 243 calls these 'RMF surface binding values'.).
Procedure: Selected antiCD22 selected anti-CD22 Mab clones VM1000, VM1001, VM1002, VM1003, VM1004, VM1005, VM1006, VM1007, VM1008, VM1009, VM1010, VM1011, VM1012, VM1013, VM1014, and VM1015 of the invention were directly conjugated to F1TC using the Zenon labeling complex (Molecular Probes) using the manufacturer's recommended procedures. Approximately 1×10e7 Daudi cells were resuspended in PBS containing 5 ug/ml labeled anti-CD22 antibody and incubated for 45 minutes on ice. Cells then washed twice in PBS-FBS solution at 0 C. Cells were then incubated in RPMI 1640 media containing 10% FBS for varying periods at 37 C, harvested and washed in PBS at 0 C. The cells were then briefly fixed in 4% paraformaldehyde solution for 5 min at room temperature, then washed in PBS containing 0.05% Triton X-100. Cell pellets were collected by centrifugation and resupended in a minimal volume of FBS neat, and then applied to glass microscope slides. Prior to analysis, slides were treated with mounting fluid containing the nuclear stain DAPI, then coverslips were applied. Confocal images were recorded using an ACAS Ultima confocal microscope (Meridian Instruments, Inc., Okemos, Mich.) and represent 1-μm sections through the center of a focal plane using a 100× oil immersion objective.
The Anti-CD22 monoclonal antibodies selected clones VM1000, VM1001, VM1002, VM1003, VM1004, VM1005, VM1006, VM1007, VM1008, VM1009, VM1010, VM1011, VM1012, VM1013, VM1014, and VM1015 of the invention were analysed for their ability to be rapidly internalized into the intracellular compartment as judged by immunoflourescent signal on the cell surface versus the intracellular endo cytotic compartment. The antibodies of the invention were compared to BA006H, and humanized version of the murine monoclonal antibody LL2. In this example, FIG. 21A, the anti-CD22 antibodies of the invention bind to CD22 protein expressed on the surface of Daudi cells by approximately 20-fold compared to BA006H as judged by relative mean fluorescence (RMF), and are virtually completely internalized within the cell with 90 minutes, localizing predominantly to within the perinuclear golgi apparatus and associated lysozomes. Shown in FIG. 21B is a chart of the RMF surface binding values obtained in this manner for individual anti-CD22 antibodies of the invention.

Binder | RMF (Daudi Internalization by Confocal) [RMF]
B2 | ~100
B3 | ~150
B4 | ~100
B5 | ~200
B6 | ~150
B7 | ~100
B1 | ~200
B8 | ~200
